# Article PMC4117426, “SlmA Antagonism of FtsZ Assembly Employs a Two-pronged Mechanism like MinCD” (PLoS Genetics, 2014)
# B1: 6×His-SlmA (natural protein, E. coli, UniProt P0C093 1-198, looked up)
# chain: MAEKQTAKRNRREEILQSLALMLESSDGSQRITTAKLAASVGVSEAALYRHFPSKTRMFDSLIEFIEDSLITRINLILKDEKDTTARLRLIVLLLLGFGERNPGLTRILTGHALMFEQDRLQGRINQLFERIEAQLRQVLREKRMREGEGYTTDETLLASQILAFCEGMLSRFVRSEFKYRPTDDFDARWPLIAAQLQ
# notes: SlmA, E. coli; also called SlmA-WT; His tagged SlmA; source: E. coli JS238/pQE80-slmA, purified (Ni-NTA)
# Columns and labels:
# [1] = target: T1, FtsZ-K190V (E. coli, UniProt P0A9A6 1-383, K190V); experiment: co-sedimentation; stable FtsZ polymers formed with GMPCPP (1 mM); proteins 5 µM, SBS17-30mer DNA 2 µM; Pol buffer (50 mM HEPES-NaOH pH 8.0, 200 mM KCl, 10 mM MgCl2); 80,000 rpm 15 min 25°C; supernatant and pellet by SDS-PAGE; conditions: both partners purified
# T1 construct: FtsZ, E. coli, untagged, with K190V; pSEB160 derivative
# T1 sequence (looked up): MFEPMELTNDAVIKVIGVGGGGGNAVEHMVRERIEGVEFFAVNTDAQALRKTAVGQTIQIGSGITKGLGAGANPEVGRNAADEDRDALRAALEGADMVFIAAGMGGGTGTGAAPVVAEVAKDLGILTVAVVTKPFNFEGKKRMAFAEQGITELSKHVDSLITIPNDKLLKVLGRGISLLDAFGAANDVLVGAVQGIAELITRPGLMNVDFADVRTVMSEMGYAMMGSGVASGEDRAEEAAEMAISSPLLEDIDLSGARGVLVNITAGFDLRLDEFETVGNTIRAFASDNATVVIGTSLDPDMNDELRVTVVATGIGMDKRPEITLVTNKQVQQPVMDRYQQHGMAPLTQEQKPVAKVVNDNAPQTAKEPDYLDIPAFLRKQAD
# [2] = target: T2, FtsZ-D86N (E. coli, UniProt P0A9A6 1-383, D86N); experiment: BLI; biotinylated SBS17-30mer (50 nM) on streptavidin tips, loaded with 4 µM SlmA or SlmA mutant; FtsZ or variants (4 µM, preincubated with 1 mM GDP) or peptides (up to 320 µM) in solution; 1× Pol buffer, room temperature; conditions: both partners purified
# T2 construct: FtsZ, E. coli, untagged, with D86N; pSEB160 derivative
# T2 sequence (looked up): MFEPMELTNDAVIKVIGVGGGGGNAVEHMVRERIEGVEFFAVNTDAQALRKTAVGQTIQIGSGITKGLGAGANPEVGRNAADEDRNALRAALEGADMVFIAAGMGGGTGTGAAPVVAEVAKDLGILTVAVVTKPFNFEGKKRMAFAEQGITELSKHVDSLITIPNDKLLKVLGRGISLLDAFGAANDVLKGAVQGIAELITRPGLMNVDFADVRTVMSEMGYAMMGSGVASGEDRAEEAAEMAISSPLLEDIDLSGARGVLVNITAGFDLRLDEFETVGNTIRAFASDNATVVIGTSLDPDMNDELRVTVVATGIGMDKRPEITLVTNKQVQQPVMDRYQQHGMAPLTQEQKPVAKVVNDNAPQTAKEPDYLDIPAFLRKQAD
binder,measurement,setting,value
B1,binding result,[1],binds
same,binding result,[2],binds
